# T1: Ac-VDVAD-cho
# T1 chain: VDVAD
# T2: Z-VDVAD-FMK
# T2 chain: VDVAD
# B1: Human recombinant caspase-2 (protein)
# chain: GPVCLQVKPCTPEFYQTHFQLAYRLQSRPRGLALVLSNVHFTGEKELEFRSGGDVDHSTLVTLFKLLGYDVHVLCDQTAQEMQEKLQNFAQLPAHRVTDSCIVALLSHGVEGAIYGVDGKLLQLQEVFQLFDNANCPSLQNKPKMFFIQACRGDETDRGVDQQDGKNHAGSPGCEESDAGKEKLPKMRLPTRSDMICGYACLKGTAAMRNTKRGSWYIEALAQVFSERACDMHVADMLVKVNALIKDREGYAPGTEFHRCKEMSEYCSTLCRHLYLFPGHPPT
# Assays:
# Ac-VDVAD-cho = target: T1, Ac-VDVAD-cho
# Z-VDVAD-FMK = target: T2, Z-VDVAD-FMK
protein,measurement,setting,value
B1,in vitro VDVAD-AMC cleavage by recombinant caspase-2,Ac-VDVAD-cho,as efficiently as commercially available caspase-2 reversible (Ac-VDVAD-Cho) or irreversible (Z-VDVAD-FMK) inhibitors
same,in vitro VDVAD-AMC cleavage by recombinant caspase-2,SEQ8,is blocked by SEQ8
same,in vitro VDVAD-AMC cleavage by recombinant caspase-2,Z-VDVAD-FMK,as efficiently as commercially available caspase-2 reversible (Ac-VDVAD-Cho) or irreversible (Z-VDVAD-FMK) inhibitors

# — patent US20090042805
